Laboratory results taken from the supplement of paper PMC11246515.
± gives the standard deviation of the averaged measurements.

Assay: total protein half-life in vivo (active degradation + dilution); higher = more stable protein
[1] = E. coli NCM3722 delta-clpP delta-lon delta-hslV, growth: N-lim chemostat, doubling time 6 h
[2] = E. coli NCM3722 delta-clpP, growth: N-lim chemostat, doubling time 6 h
[3] = E. coli NCM3722 delta-hslV, growth: N-lim chemostat, doubling time 6 h
[4] = E. coli NCM3722 delta-lon, growth: N-lim chemostat, doubling time 6 h
[5] = E. coli NCM3722 delta-smpB, growth: N-lim chemostat, doubling time 6 h
[6] = wild type E. coli NCM3722, growth: C-lim chemostat, doubling time 3 h
[7] = wild type E. coli NCM3722, growth: C-lim chemostat, doubling time 6 h
[8] = wild type E. coli NCM3722, growth: C-lim chemostat, doubling time 12 h
[9] = wild type E. coli NCM3722, growth: N-lim chemostat, doubling time 6 h
[10] = wild type E. coli NCM3722, growth: N-lim chemostat, doubling time 12 h
[11] = wild type E. coli NCM3722, growth: P-lim chemostat, doubling time 6 h
[12] = wild type E. coli NCM3722, growth: P-lim chemostat, doubling time 12 h

Row | Sequence | total protein half-life in vivo [1] | total protein half-life in vivo [2] | total protein half-life in vivo [3] | total protein half-life in vivo [4] | total protein half-life in vivo [5] | total protein half-life in vivo [6] | total protein half-life in vivo [7] | total protein half-life in vivo [8] | total protein half-life in vivo [9] | total protein half-life in vivo [10] | total protein half-life in vivo [11] | total protein half-life in vivo [12]
1 | MIRFAVIGTNWITRQFVEAAHESGKYKLTAVYSRSLEQAQHFANDFSVEHLFTSLEAMAESDAIDAVYIASPNSLHFSQTQLFLSHKINVICEKPLASNLAEVDAAIACARENQVVLFEAFKTACLPNFHLLRQALPKVGKLRKVFFNYCQYSSRYQRYLDGENPNTFNPAFSNGSIMDIGFYCLASAVALFGEPKSVQATASLLASGVDAQGVVVMDYGDFSVTLQHSKVSDSVLASEIQGEAGSLVIEKLSECQKVCFVPRGSQMQDLTQPQHINTMLYEAELFATLVDEHLVDHPGLAVSRITAKLLTEIRRQTGVIFPADSVKL | 4.844 ± 0.015 h | 4.33 ± 0.36 h | 4.29 ± 0.31 h | 4.616 ± 0.03 h | 4.18 ± 0.54 h | 2.56 ± 0.41 h | 5.28 ± 0.46 h | 9.44 ± 1.5 h | 4.08 ± 0.11 h | 6.53 ± 1.1 h | 6.55 ± 1 h | 10.8 ± 0.27 h
2 | MSIQLNGINCFYGAHQALFDITLDCPQGETLVLLGPSGAGKSSLLRVLNLLEMPRSGTLNIAGNHFDFTKTPSDKAIRDLRRNVGMVFQQYNLWPHLTVQQNLIEAPCRVLGLSKDQALARAEKLLERLRLKPYSDRYPLHLSGGQQQRVAIARALMMEPQVLLFDEPTAALDPEITAQIVSIIRELAETNITQVIVTHEVEVARKTASRVVYMENGHIVEQGDASCFTEPQTEAFKNYLSH [P0AAF6] | 6.06 ± 0.7 h | 5.54 ± 0.19 h | 6.4 h | 5.57 ± 0.91 h | 4.77 ± 0.37 h | > 4 h | 6.19 ± 0.35 h | 11.9 h | 5.55 ± 0.86 h | 10.5 ± 0.48 h | 6.11 h | 11.6 ± 0.25 h
3 | MPRSTWFKALLLLVALWAPLSQAETGWQPIQETIRKSDKDNRQYQAIRLDNGMVVLLVSDPQAVKSLSALVVPVGSLEDPEAYQGLAHYLEHMSLMGSKKYPQADSLAEYLKMHGGSHNASTAPYRTAFYLEVENDALPGAVDRLADAIAEPLLDKKYAERERNAVNAELTMARTRDGMRMAQVSAETINPAHPGSKFSGGNLETLSDKPGNPVQQALKDFHEKYYSANLMKAVIYSNKPLPELAKMAADTFGRVPNKESKKPEITVPVVTDAQKGIIIHYVPALPRKVLRVEFRIDNNSAKFRSKTDELITYLIGNRSPGTLSDWLQKQGLVEGISANSDPIVNGNSGVLAISASLTDKGLANRDQVVAAIFSYLNLLREKGIDKQYFDELANVLDIDFRYPSITRDMDYVEWLADTMIRVPVEHTLDAVNIADRYDAKAVKERLAMMTPQNARIWYISPKEPHNKTAYFVDAPYQVDKISAQTFADWQKKAADIALSLPELNPYIPDDFSLIKSEKKYDHPELIVDESNLRVVYAPSRYFASEPKADVSLILRNPKAMDSARNQVMFALNDYLAGLALDQLSNQASVGGISFSTNANNGLMVNANGYTQRLPQLFQALLEGYFSYTATEDQLEQAKSWYNQMMDSAEKGKAFEQAIMPAQMLSQVPYFSRDERRKILPSITLKEVLAYRDALKSGARPEFMVIGNMTEAQATTLARDVQKQLGADGSEWCRNKDVVVDKKQSVIFEKAGNSTDSALAAVFVPTGYDEYTSSAYSSLLGQIVQPWFYNQLRTEEQLGYAVFAFPMSVGRQWGMGFLLQSNDKQPSFLWERYKAFFPTAEAKLRAMKPDEFAQIQQAVITQMLQAPQTLGEEASKLSKDFDRGNMRFDSRDKIVAQIKLLTPQKLADFFHQAVVEPQGMAILSQISGSQNGKAEYVHPEGWKVWENVSALQQTMPLMSEKNE | 6.72 ± 0.29 h | 6.24 ± 0.52 h | 5.96 ± 0.35 h | 6.46 ± 0.14 h | 5.53 ± 0.073 h | 3.05 ± 0.33 h | 5.91 ± 0.59 h | 11.5 ± 0.5 h | 6.17 ± 0.092 h | 11.7 ± 0.35 h | 5.28 ± 0.059 h | 11.1 ± 0.72 h
4 | MTPLVKDIIMSSTRMPALFLGHGSPMNVLEDNLYTRSWQKLGMTLPRPQAIVVVSAHWFTRGTGVTAMETPPTIHDFGGFPQALYDTHYPAPGSPALAQRLVELLAPIPVTLDKEAWGFDHGSWGVLIKMYPDADIPMVQLSIDSSKPAAWHFEMGRKLAALRDEGIMLVASGNVVHNLRTVKWHGDSSPYPWATSFNEYVKANLTWQGPVEQHPLVNYLDHEGGTLSNPTPEHYLPLLYVLGAWDGQEPITIPVEGIEMGSLSMLSVQIG |  | 3.18 h |  |  |  | 2.85 h | 5.76 h | 11.3 h | 3.76 h |  | 5.45 h | 10.5 ± 0.65 h
5 | MKNWKTSAESILTTGPVVPVIVVKKLEHAVPMAKALVAGGVRVLEVTLRTECAVDAIRAIAKEVPEAIVGAGTVLNPQQLAEVTEAGAQFAISPGLTEPLLKAATEGTIPLIPGISTVSELMLGMDYGLKEFKFFPAEANGGVKALQAIAGPFSQVRFCPTGGISPANYRDYLALKSVLCIGGSWLVPADALEAGDYDRITKLAREAVEGAKL [P0A955] | 4.94 ± 0.33 h | 4.33 ± 0.52 h | 4.66 ± 0.37 h | 4.92 ± 0.53 h | 4.3 ± 0.16 h | 2.99 ± 0.52 h | 6.17 ± 0.77 h | 9.18 ± 0.99 h | 4.63 ± 0.16 h | 7.2 ± 0.82 h | 5.39 ± 0.082 h | 12.2 ± 0.37 h
6 | MKVLIVESEFLHQDTWVGNAVERLADALSQQNVTVIKSTSFDDGFAILSSNEAIDCLMFSYQMEHPDEHQNVRQLIGKLHERQQNVPVFLLGDREKALAAMDRDLLELVDEFAWILEDTADFIAGRAVAAMTRYRQQLLPPLFSALMKYSDIHEYSWAAPGHQGGVGFTKTPAGRFYHDYYGENLFRTDMGIERTSLGSLLDHTGAFGESEKYAARVFGADRSWSVVVGTSGSNRTIMQACMTDNDVVVVDRNCHKSIEQGLMLTGAKPVYMVPSRNRYGIIGPIYPQEMQPETLQKKISESPLTKDKAGQKPSYCVVTNCTYDGVCYNAKEAQDLLEKTSDRLHFDEAWYGYARFNPIYADHYAMRGEPGDHNGPTVFATHSTHKLLNALSQASYIHVREGRGAINFSRFNQAYMMHATTSPLYAICASNDVAVSMMDGNSGLSLTQEVIDEAVDFRQAMARLYKEFTADGSWFFKPWNKEVVTDPQTGKTYDFADAPTKLLTTVQDCWVMHPGESWHGFKDIPDNWSMLDPIKVSILAPGMGEDGELEETGVPAALVTAWLGRHGIVPTRTTDFQIMFLFSMGVTRGKWGTLVNTLCSFKRHYDANTPLAQVMPELVEQYPDTYANMGIHDLGDTMFAWLKENNPGARLNEAYSGLPVAEVTPREAYNAIVDNNVELVSIENLPGRIAANSVIPYPPGIPMLLSGENFGDKNSPQVSYLRSLQSWDHHFPGFEHETEGTEIIDGIYHVMCVKA | 5.82 ± 0.47 h | 4.96 ± 1.1 h | 6.09 ± 0.29 h | 5.74 ± 0.22 h | 5.38 ± 0.21 h | 3.193 ± 0.023 h | 5.14 ± 0.23 h | 11.5 ± 0.12 h | 6.03 ± 0.28 h | 12.1 ± 2 h | 6.14 ± 0.3 h | 11.5 ± 0.15 h
7 | MKPYQRQFIEFALSKQVLKFGEFTLKSGRKSPYFFNAGLFNTGRDLALLGRFYAEALVDSGIEFDLLFGPAYKGIPIATTTAVALAEHHDLDLPYCFNRKEAKDHGEGGNLVGSALQGRVMLVDDVITAGTAIRESMEIIQANGATLAGVLISLDRQERGRGEISAIQEVERDYNCKVISIITLKDLIAYLEEKPEMAEHLAAVKAYREEFGV [P0A7E3] | 4.07 ± 0.75 h | 3.84 ± 0.28 h | 3.61 h | 4.35 ± 0.61 h | 3.83 ± 0.08 h | 2.87 ± 0.3 h | 5.31 ± 0.18 h | 9.3 ± 3.5 h | 3.93 ± 0.33 h | 6.396 ± 0.051 h | 5.62 ± 0.25 h | 10.7 ± 0.39 h
8 | MRLAPLYRNALLLTGLLLSGIAAVQAADWPRQITDSRGTHTLESQPQRIVSTSVTLTGSLLAIDAPVIASGATTPNNRVADDQGFLRQWSKVAKERKLQRLYIGEPSAEAVAAQMPDLILISATGGDSALALYDQLSTIAPTLIINYDDKSWQSLLTQLGEITGHEKQAAERIAQFDKQLAAAKEQIKLPPQPVTAIVYTAAAHSANLWTPESAQGQMLEQLGFTLAKLPAGLNASQSQGKRHDIIQLGGENLAAGLNGESLFLFAGDQKDADAIYANPLLAHLPAVQNKQVYALGTETFRLDYYSAMQVLDRLKALF [P0AEL6] | 3.63 ± 0.44 h | 4.68 ± 0.25 h | 5.13 h |  | 5.5 ± 0.95 h | > 4 h | 5.29 ± 0.068 h | 11.5 ± 3.5 h | 5.62 ± 0.55 h | 10.4 ± 3 h | 6.51 ± 0.24 h | 
9 | MNQVAVVIGGGQTLGAFLCHGLAAEGYRVAVVDIQSDKAANVAQEINAEYGESMAYGFGADATSEQSVLALSRGVDEIFGRVDLLVYSAGIAKAAFISDFQLGDFDRSLQVNLVGYFLCAREFSRLMIRDGIQGRIIQINSKSGKVGSKHNSGYSAAKFGGVGLTQSLALDLAEYGITVHSLMLGNLLKSPMFQSLLPQYATKLGIKPDQVEQYYIDKVPLKRGCDYQDVLNMLLFYASPKASYCTGQSINVTGGQVMF | 4.14 h |  |  |  |  | 1.19 ± 0.41 h |  | 1.43 h |  |  |  | 
